Laboratory results reported in paper PMC4865107.

Experiments:
Topo IV [1] = assay: EMSA (agarose); settings: no XerCD; 200 nM Topo IV required for migration delay; 1 mM spermidine, 30 mM potassium glutamate, 10 mM DTT, 6 mM MgCl2, 10% glycerol, pH 7.4, 15 min at RT; 4% native PAGE (plasmid: 0.8% agarose, 0.5x TAE, 4 C)
[2] = system: Topo IV;XerC;XerD (Escherichia coli?;Escherichia coli?;Escherichia coli?); assay: EMSA (agarose); settings: 50 nM XerCD; migration delay seen with 40 nM Topo IV; 1 mM spermidine, 30 mM potassium glutamate, 10 mM DTT, 6 mM MgCl2, 10% glycerol, pH 7.4, 15 min at RT; 4% native PAGE (plasmid: 0.8% agarose, 0.5x TAE, 4 C)
Topo IV [3] = assay: EMSA; settings: Topo IV alone; stated as bound poorly; 1 mM spermidine, 30 mM potassium glutamate, 10 mM DTT, 6 mM MgCl2, 10% glycerol, pH 7.4, 15 min at RT; 4% native PAGE (plasmid: 0.8% agarose, 0.5x TAE, 4 C)

In the case of “negatively supercoiled plasmid containing dif”, the binding (Topo IV [1]) is reported as 200 nM and the binding [2] is reported as 40 nM.
Substance dif probe, 250 bp has a Kd (Topo IV [3]) of over 100 nM.
